Target: the molecule itself
Test: SEC; recombinant Get3/TA complex from yeast or zebra fish; SEC and SDS-PAGE (Fig. S10); conditions not shown

B1: Get3 from yeast (recombinant Get3/TA complex) (natural protein, UniProt Q12154 1-354, looked up)
chain: MDLTVEPNLHSLITSTTHKWIFVGGKGGVGKTTSSCSIAIQMALSQPNKQFLLISTDPAHNLSDAFGEKFGKDARKVTGMNNLSCMEIDPSAALKDMNDMAVSRANNNGSDGQGDDLGSLLQGGALADLTGSIPGIDEALSFMEVMKHIKRQEQGEGETFDTVIFDTAPTGHTLRFLQLPNTLSKLLEKFGEITNKLGPMLNSFMGAGNVDISGKLNELKANVETIRQQFTDPDLTTFVCVCISEFLSLYETERLIQELISYDMDVNSIIVNQLLFAENDQEHNCKRCQARWKMQKKYLDQIDELYEDFHVVKMPLCAGEIRGLNNLTKFSQFLNKEYNPITDGKVIYELEDKE
notes: Get3 of yeast; also called yeast Get3; source: recombinant, purified as Get3/TA complex
  stoichiometry N: 2

B2: Get3 from zebra fish (recombinant Get3/TA complex) (natural protein)
chain: not shown
notes: Get3 of zebra fish (Danio rerio); also called zebra fish Get3; source: recombinant, purified as Get3/TA complex
  stoichiometry N: 2
